Laboratory results: publication PMC6731260

B1: ESRRB: Ac45SGlcNAc (OGT inhibitor) (protein)
parent chain: MSSEDRHLGSSCGSFIKTEPSSPSSGIDALSHHSPSGSSDASGGFGIALSTHANGLDSPPMFAGAGLGGNPCRKSYEDCTSGIMEDSAIKCEYMLNAIPKRLCLVCGDIASGYHYGVASCEACKAFFKRTIQGNIEYNCPATNECEITKRRRKSCQACRFMKCLKVGMLKEGVRLDRVRGGRQKYKRRLDSENSPYLNLPISPPAKKPLTKIVSNLLGVEQDKLYAMPPNDIPEGDIKALTTLCELADRELVFLINWAKHIPGFPSLTLGDQMSLLQSAWMEILILGIVYRSLPYDDKLAYAEDYIMDEEHSRLVGLLDLYRAILQLVRRYKKLKVEKEEFMILKALALANSDSMYIENLEAVQKLQDLLHEALQDYELSQRHEEPRRAGKLLLTLPLLRQTAAKAVQHFYSVKLQGKVPMHKLFLEMLEAKV
B2: ESRRB: S25A (protein)
parent chain: B1 parent chain

Assays:
[1] = ESRRB-responsive element luciferase reporter, HEK293T; conditions: glycan lost
[2] = CHX chase, FLAG-ESRRB immunoblot, mESCs; conditions: glycan lost; control: DMSO
[3] = GFP immunoprecipitation, ubiquitin blot, HEK293T; conditions: glycan lost; control: wild type
[4] = CHX 12 h, immunoblot, HEK293T; conditions: glycan lost; control: EGFP-ESRRB wild type
[5] = CHX chase up to 12 h, immunoblot, mESCs; conditions: glycan lost; control: FLAG-ESRRB wild type

| Protein | other: transcriptional activity ([1]; control: DMSO) | degradation_or_half_life [2] | other: ubiquitination [3] | degradation_or_half_life [4] | other: transcriptional activity ([1]; control: FLAG-ESRRB wild type) | degradation_or_half_life [5] |
| --- | --- | --- | --- | --- | --- | --- |
| B1 | decreases | decreases |  |  |  |  |
| B2 |  |  | increases | decreases | decreases | decreases |
